Test results taken from EP4782465A1 (Shanghai Mabgen Biotech Ltd., dated 2026).

Target: Insulin receptor of C2C12 mouse myoblasts (mouse, UniProt P15208 28-1372)
Assay: cell-based or functional assay

Sequence of Insulin receptor of C2C12 mouse myoblasts (P15208 28-1372): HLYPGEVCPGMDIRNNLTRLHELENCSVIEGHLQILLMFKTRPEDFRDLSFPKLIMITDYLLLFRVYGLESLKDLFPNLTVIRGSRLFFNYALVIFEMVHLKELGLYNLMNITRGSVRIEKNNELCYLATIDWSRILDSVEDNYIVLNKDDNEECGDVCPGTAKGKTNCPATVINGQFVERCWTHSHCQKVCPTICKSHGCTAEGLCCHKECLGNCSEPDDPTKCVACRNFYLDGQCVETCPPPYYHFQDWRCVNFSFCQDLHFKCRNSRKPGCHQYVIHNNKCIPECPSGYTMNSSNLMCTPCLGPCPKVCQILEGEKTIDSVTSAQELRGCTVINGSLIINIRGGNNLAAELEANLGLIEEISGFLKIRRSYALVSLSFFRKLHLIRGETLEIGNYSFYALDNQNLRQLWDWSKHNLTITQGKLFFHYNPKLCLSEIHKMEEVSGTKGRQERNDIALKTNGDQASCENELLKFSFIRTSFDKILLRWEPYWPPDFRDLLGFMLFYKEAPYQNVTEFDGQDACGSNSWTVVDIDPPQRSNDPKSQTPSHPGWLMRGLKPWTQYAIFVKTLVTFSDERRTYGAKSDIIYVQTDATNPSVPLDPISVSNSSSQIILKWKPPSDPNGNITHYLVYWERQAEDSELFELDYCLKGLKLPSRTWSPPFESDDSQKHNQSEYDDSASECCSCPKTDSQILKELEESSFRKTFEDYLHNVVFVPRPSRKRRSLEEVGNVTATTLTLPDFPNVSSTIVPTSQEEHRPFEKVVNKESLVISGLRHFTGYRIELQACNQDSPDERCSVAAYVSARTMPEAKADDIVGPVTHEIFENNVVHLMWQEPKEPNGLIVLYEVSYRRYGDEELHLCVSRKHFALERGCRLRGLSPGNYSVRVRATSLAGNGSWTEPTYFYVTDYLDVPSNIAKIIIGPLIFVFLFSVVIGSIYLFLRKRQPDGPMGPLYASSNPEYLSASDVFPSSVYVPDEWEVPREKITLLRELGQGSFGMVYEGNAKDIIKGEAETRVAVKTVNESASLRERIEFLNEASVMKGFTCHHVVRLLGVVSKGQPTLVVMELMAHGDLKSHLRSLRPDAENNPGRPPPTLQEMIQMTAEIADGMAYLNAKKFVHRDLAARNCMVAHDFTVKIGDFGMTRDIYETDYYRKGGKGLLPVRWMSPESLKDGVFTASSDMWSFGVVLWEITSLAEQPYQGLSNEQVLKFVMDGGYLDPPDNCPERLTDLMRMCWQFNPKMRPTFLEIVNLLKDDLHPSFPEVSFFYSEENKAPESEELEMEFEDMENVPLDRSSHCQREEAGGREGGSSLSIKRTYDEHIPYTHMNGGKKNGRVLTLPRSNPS

B1: Fusion protein 1 (insulin analog 1 + L2 + IgG2 Fc1) (Fc fusion)
chain: FVNQHLCGEHLVEALYLVCGERGFHYGGGGGGSGGGGGIVEQCCESICSLEQLENYCGGGGGQGGGGQGGGGQGGGGGECPPCPAPPVAGPSVFLFPPKPKDTLMISRTPEVTCVVVDVSHEDPEVQFNWYVDGVEVHNAKTKPREEQFNSTFRVVSVLTVVHQDWLNGKEYKCKVSNKGLPAPIEKTISKTKGQPREPQVYTLPPSREEMTKNQVSLTCLVKGFYPSDIAVEWESNGQPENNYKTTPPMLDSDGSFFLYSKLTVDKSRWQQGNVFSCSVMHEALHNHYTQKSLSLSPG
B1 was tested, and the “AKT phosphorylation activity (EC50)” value was 490 nM.
